Test results taken from US20200277360A1 (UNIVERSITY OF MANCHESTER, published 2020).

Key:
C3b [1] = target: T1, C3b (human, UniProt P01024 23-667; P01024 749-1663); assay: Bio-Layer Interferometry
T1 construct: also called purified C3b

C3b [2] = target: C3b

T1 sequence (P01024 23-667 limits assumed, chain 1 of 2): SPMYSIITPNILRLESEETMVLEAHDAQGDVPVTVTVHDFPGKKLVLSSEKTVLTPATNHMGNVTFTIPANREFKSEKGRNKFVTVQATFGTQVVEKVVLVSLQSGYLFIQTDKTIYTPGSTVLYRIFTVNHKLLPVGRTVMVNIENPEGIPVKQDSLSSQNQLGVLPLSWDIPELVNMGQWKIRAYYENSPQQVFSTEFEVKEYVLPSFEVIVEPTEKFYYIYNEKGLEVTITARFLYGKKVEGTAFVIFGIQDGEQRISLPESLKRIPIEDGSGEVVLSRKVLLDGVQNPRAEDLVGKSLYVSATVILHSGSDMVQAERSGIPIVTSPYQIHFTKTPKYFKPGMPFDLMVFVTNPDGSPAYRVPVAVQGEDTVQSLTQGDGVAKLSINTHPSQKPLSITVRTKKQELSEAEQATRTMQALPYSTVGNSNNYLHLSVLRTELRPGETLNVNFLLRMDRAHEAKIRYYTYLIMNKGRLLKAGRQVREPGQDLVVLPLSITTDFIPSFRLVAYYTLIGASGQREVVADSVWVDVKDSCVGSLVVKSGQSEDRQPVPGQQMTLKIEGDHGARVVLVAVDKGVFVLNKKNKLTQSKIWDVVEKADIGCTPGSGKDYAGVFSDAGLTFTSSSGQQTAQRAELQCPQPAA
T1 sequence (P01024 749-1663 limits assumed, chain 2 of 2): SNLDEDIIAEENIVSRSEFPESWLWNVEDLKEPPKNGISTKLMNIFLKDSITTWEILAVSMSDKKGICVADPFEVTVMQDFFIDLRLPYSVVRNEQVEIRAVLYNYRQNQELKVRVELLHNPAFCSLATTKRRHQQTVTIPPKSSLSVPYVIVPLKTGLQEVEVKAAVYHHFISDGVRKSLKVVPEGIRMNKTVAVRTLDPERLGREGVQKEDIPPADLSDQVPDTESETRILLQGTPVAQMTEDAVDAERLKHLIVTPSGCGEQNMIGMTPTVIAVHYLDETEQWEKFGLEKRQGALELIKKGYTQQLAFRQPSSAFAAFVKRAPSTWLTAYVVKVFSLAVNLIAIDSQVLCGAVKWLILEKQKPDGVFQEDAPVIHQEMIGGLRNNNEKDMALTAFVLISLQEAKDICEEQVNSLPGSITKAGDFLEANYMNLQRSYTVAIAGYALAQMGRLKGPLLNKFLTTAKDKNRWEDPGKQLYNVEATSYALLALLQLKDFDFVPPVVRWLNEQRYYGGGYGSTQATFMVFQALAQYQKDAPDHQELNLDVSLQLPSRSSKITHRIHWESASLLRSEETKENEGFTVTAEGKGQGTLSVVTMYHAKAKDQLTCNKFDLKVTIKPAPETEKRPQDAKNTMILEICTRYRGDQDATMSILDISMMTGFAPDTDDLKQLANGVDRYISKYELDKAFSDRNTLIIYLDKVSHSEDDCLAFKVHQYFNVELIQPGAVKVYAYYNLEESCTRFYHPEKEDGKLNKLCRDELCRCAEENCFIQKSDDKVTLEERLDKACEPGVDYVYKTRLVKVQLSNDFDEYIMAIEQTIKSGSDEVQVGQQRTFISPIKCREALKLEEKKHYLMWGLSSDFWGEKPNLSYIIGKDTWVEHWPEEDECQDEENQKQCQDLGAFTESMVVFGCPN

| Kd (C3b [1]) | Binder | C3b alpha-chain breakdown (Instant Blue stained gel), with FHL-1 as co-factor (C3b [2]) |
| --- | --- | --- |
| 583 nM | Complement Factor H (other, Positive control in the BLI assay; also called FH) EDCNELPPRRNTEILTGSWSDQTYPEGTQAIYKCRPGYRSLGNVIMVCRKGEWVALNPLRKCQKRPCGHPGDTPFGTFTLTGGNVFEYGVKAVYTCNEGYQLLGEINYRECDTDGWTNDIPICEVVKCLPVTAPENGKIVSSAMEPDREYHFGQAVRFVCNSGYKIEGDEEMHCSDDGFWSKEKPKCVEISCKSPDVINGSPISQKIIYKENERFQYKCNMGYEYSERGDAVCTESGWRPLPSCEEKSCDNPYIPNGDYSPLRIKHRTGDEITYQCRNGFYPATRGNTAKCTSTGWIPAPRCTLKPCDYPDIKHGGLYHENMRRPYFPVAVGKYYSYYCDEHFETPSGSYWDHIHCTQDGWSPAVPCLRKCYFPYLENGYNQNYGRKFVQGKSIDVACHPGYALPKAQTTVTCMENGWSPTPRCIRVKTCSKSSIDIENGFISESQYTYALKEKAKYQCKLGYVTADGETSGSITCGKDGWSAQPTCIKSCDIPVFMNARTKNDFTWFKLNDTLDYECHDGYESNTGSTTGSIVCGYNGWSDLPICYERECELPKIDVHLVPDRKKDQYKVGEVLKFSCKPGFTIVGPNSVQCYHFGLSPDLPICKEQVQSCGPPPELLNGNVKEKTKEEYGHSEVVEYYCNPRFLMKGPNKIQCVDGEWTTLPVCIVEESTCGDIPELEHGWAQLSSPPYYYGDSVEFNCSESFTMIGHRSITCIHGVWTQLPQCVAIDKLKKCKSSNLIILEEHLKNKKEFDHNSNIRYRCRGKEGWIHTVCINGRWDPEVNCSMAQIQLCPPPPQIPNSHNMTTTLNYRDGEKVSVLCQENYLIQEGEEITCKDGRWQSIPLCVEKIPCSQPPQIEHGTINSSRSSQESYAHGTKLSYTCEGGFRISEENETTCYMGKWSSPPQCEGLPCKSPPEISHGVVAHMSDSYQYGEEVTYKCFEGFGIDGPAIAKCLGEKWSHPPSCIKTDCLSLPSFENAIPMGEKKDVYKAGEQVTYTCATYYKMDGASNVTCINSRWTGRPTCRDTSCVNPPTVQNAYIVSRQMSKYPSGERVRYQCRSPYEMFGDEEVMCLNGNWTEPPQCKDSTGKCGPPPPIDNGDITSFPLSVYAPASSVEYQCQNLYQLEGNKRITCRNGQWSEPPKCLHPCVISREIMENYNIALRWTAKQKLYSRTGESVEFVCKRGYRLSSRSHTLRTTCWDGKLEYPTCAKR |  |
|  | Complement Factor I (protein) chain 1: KVTYTSQEDLVEKKCLAKKYTHLSCDKVFCQPWQRCIEGTCVCKLPYQCPKNGTAVCATNRRSFPTYCQQKSLECLHPGTKFLNNGTCTAEGKFSVSLKHGNTDSEGIVEVKLVDQDKTMFICKSSWSMREANVACLDLGFQQGADTQRRFKLSDLSINSTECLHVHCRGLETSLAECTFTKRRTMGYQDFADVVCYTQKADSPMDDFFQCVNGKYISQMKACDGINDCGDQSDELCCKACQGKGFHCKSGVCIPSQYQCNGEVDCITGEDEVGCAGFASVTQEETEILTADMDAERRRIKSLLPKLSCGVKNRMHI chain 2: IVGGKRAQLGDLPWQVAIKDASGITCGGIYIGGCWILTAAHCLRASKTHRYQIWTTVVDWIHPDLKRIVIEYVDRIIFHENYNAGTYQNDIALIEMKKDGNKKDCELPRSIPACVPWSPYLFQPNDTCIVSGWGREKDNERVFSLQWGEVKLISNCSKFYGNRFYEKEMECAGTYDGSIDACKGDSGGPLVCMDANNVTYVWGVVSWGENCGKPEFPGVYTKVANYFDWISYHVGRPFISQYNV | It was possible to observe the breakdown of the α-chain of C3b in the presence of FHL-1 and FI |
| 5.21 nM | glycosylated chimeric FH-FI polypeptide (other, N-glycans on the Complement Factor I proteolytic domain (glycosylated form), It consists of the Factor H co-factor region (CCPs 1-4), a G4S-R-(G4S)2 linker and the Factor I proteolytic domain; also called Chimera) GSSGEDCNELPPRRNTEILTGSWSDQTYPEGTQAIYKCRPGYRSLGNIIMVCRKGEWVALNPLRKCQKRPCGHPGDTPFGTFTLTGGNVFEYGVKAVYTCNEGYQLLGEINYRECDTDGWTNDIPICEVVKCLPVTAPENGKIVSSAMEPDREYHFGQAVRFVCNSGYKIEGDEEMHCSDDGFWSKEKPKCVEISCKSPDVINGSPISQKIIYKENERFQYKCNMGYEYSERGDAVCTESGWRPLPSCEEGGGGSRGGGGSGGGGSIVGGKRAQLGDLPWQVAIKDASGITCGGIYIGGCWILTAAHCLRASKTHRYQIWTTVVDWIHPDLKRIVIEYVDRIIFHENYNAGTYQNDIALIEMKKDGNKKDCELPRSIPAAVPWSPYLFQPNDTCIVSGWGREKDNERVFSLQWGEVKLISNCSKFYGNRFYEKEMECAGTYDGSIDACKGDSGGPLVCMDANNVTYVWGVVSWGENCGKPEFPGVYTKVANYFDWISYHVGRPFISQYNV |  |
| 47.6 nM | deglycosylated chimeric FH-FI polypeptide (other, N-glycans removed with PNGase F under non-denaturing conditions, It is not the N464Q/N494Q/N536Q mutant; also called dFH-FI; dChimera) GSSGEDCNELPPRRNTEILTGSWSDQTYPEGTQAIYKCRPGYRSLGNIIMVCRKGEWVALNPLRKCQKRPCGHPGDTPFGTFTLTGGNVFEYGVKAVYTCNEGYQLLGEINYRECDTDGWTNDIPICEVVKCLPVTAPENGKIVSSAMEPDREYHFGQAVRFVCNSGYKIEGDEEMHCSDDGFWSKEKPKCVEISCKSPDVINGSPISQKIIYKENERFQYKCNMGYEYSERGDAVCTESGWRPLPSCEEGGGGSRGGGGSGGGGSIVGGKRAQLGDLPWQVAIKDASGITCGGIYIGGCWILTAAHCLRASKTHRYQIWTTVVDWIHPDLKRIVIEYVDRIIFHENYNAGTYQNDIALIEMKKDGNKKDCELPRSIPAAVPWSPYLFQPNDTCIVSGWGREKDNERVFSLQWGEVKLISNCSKFYGNRFYEKEMECAGTYDGSIDACKGDSGGPLVCMDANNVTYVWGVVSWGENCGKPEFPGVYTKVANYFDWISYHVGRPFISQYNV |  |
| 1170 nM | Complement Factor H isoform FHL-1 (other, Positive control in the BLI assay; also called factor H-like protein 1) EDCNELPPRRNTEILTGSWSDQTYPEGTQAIYKCRPGYRSLGNVIMVCRKGEWVALNPLRKCQKRPCGHPGDTPFGTFTLTGGNVFEYGVKAVYTCNEGYQLLGEINYRECDTDGWTNDIPICEVVKCLPVTAPENGKIVSSAMEPDREYHFGQAVRFVCNSGYKIEGDEEMHCSDDGFWSKEKPKCVEISCKSPDVINGSPISQKIIYKENERFQYKCNMGYEYSERGDAVCTESGWRPLPSCEEKSCDNPYIPNGDYSPLRIKHRTGDEITYQCRNGFYPATRGNTAKCTSTGWIPAPRCTLKPCDYPDIKHGGLYHENMRRPYFPVAVGKYYSYYCDEHFETPSGSYWDHIHCTQDGWSPAVPCLRKCYFPYLENGYNQNYGRKFVQGKSIDVACHPGYALPKAQTTVTCMENGWSPTPRCIRVSFTL |  |
